{
  "source": "patent US20230303715A1",
  "assay_in_all_cases": "SPR Biacore, Ab on HER2 chip",
  "key": {"FcγRIIb": {"molecular_target": "FcγRIIb (UniProt P31994)", "sequence (P31994 43-217 limits assumed)": "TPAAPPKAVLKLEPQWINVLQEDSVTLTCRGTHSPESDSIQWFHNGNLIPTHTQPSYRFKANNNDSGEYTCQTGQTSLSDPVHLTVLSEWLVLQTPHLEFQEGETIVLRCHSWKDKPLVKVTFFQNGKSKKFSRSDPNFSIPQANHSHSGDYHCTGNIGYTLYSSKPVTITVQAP"}, "FcγRI": {"molecular_target": "FcγRI (UniProt P12314)", "sequence (P12314 16-292 limits assumed)": "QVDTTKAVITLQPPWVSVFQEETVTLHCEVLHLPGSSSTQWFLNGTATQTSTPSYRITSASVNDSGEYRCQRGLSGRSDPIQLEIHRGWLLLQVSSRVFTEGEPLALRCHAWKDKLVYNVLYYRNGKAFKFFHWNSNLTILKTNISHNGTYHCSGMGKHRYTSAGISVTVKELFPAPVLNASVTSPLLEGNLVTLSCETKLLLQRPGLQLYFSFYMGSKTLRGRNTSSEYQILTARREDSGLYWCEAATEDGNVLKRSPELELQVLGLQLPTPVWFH"}, "FcγRIIaR": {"molecular_target": "FcγRIIaR (UniProt P12318)", "sequence (P12318 34-217 H167R limits assumed)": "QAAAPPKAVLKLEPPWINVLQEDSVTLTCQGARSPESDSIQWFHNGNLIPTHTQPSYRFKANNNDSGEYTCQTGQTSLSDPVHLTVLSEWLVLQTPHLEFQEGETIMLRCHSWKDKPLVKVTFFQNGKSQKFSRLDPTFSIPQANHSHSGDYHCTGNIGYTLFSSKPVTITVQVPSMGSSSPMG"}, "FcγRIIaH": {"molecular_target": "FcγRIIaH (UniProt P12318)", "sequence (P12318 34-217 limits assumed)": "as the sequence (P12318 34-217 H167R limits assumed) above, with R134H counted along it"}},
  "data": [
    {"binder": "one-armed trastuzumab antibody, Scaffold 9, variant v27319 (L242C_I336C/V308I) (antibody, part only; not given: Trastuzumab Fab arm, not shown: another chain or arm of the molecule, Engineered intrachain disulphide C242-C336 in each Fc chain.) Fc 1: APEFLNGPSVFCFPPKPKDTLMISRTPEVTCVVVDVSQEDPEVKFNWYVDGVEVHNAKTKPREEQYNSTYRVVSVLTILHQDWLNGKEYKCKVSNKGLPKSIEKTCSKAKGQPREPQVYVYPPSRDELTKNQVSLTCLVKGFYPSDIAVEWESNGQPENNYKTTPPVLDSDGSFALVSKLTVDKSRWQQGNVFSCSVMHEALHNHYTQKSLSLSPGK Fc 2: APELLDGPDVFCFPPKPKDTLMISRTPEVTCVVVDLADEDPEVKFNWYVDGVEVHNAKTKPREEQYNSTYRVVSVLTILHQDWLNGKEYKCKVSNKALPAPIEKTCSKAKGQPREPQVYVLPPSRDELTKNQVSLLCLVKGFYPSDIAVEWESNGQPENNYLTWPPVLDSDGSFFLYSKLTVDKSRWQQGNVFSCSVMHEALHNHYTQKSLSLSPGK", "values": [
      {"measurement": "Kd", "setting": "FcγRIIb", "result": 15.5, "unit": "nM"},
      {"measurement": "Kd", "setting": "FcγRI", "result": 0.532, "unit": "nM"},
      {"measurement": "Kd", "setting": "FcγRIIaR", "result": 61.4, "unit": "nM"},
      {"measurement": "Kd", "setting": "FcγRIIaH", "result": 575, "unit": "nM"}
    ]}
  ]
}
